Data taken from the supplement of paper PMC10126150.
± gives the standard deviation of the averaged measurements.

System: ATP
Experiment: switch fluorescence ratio, 500 uM ATP over buffer (Cy3 cluster intensity, sum of 5 cycles each) (fold (ratio)); higher = stronger signal-on switching upon ATP binding; sequences stand for … in TCGTCGGCAGCGTCAGATGTGTATAAGAGACAGTTTTTTTTTTTTTTTTTTTTTTTTT…TC
Conditions: aptamer strand: ATP DNA aptamer (quencher-CACCTGGGGGAGTATTGCGGAGGAAGG + anchor), 100 nM annealed; ATP concentration: 500 uM
Procedure, shortened: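 Cy3-labelled switching-strand clusters on a modified Illumina MiSeq flow-cell were annealed to 100 nM quencher-labelled ATP aptamer, imaged in selection buffer, then imaged after 15 min with 500 uM ATP at 22 °C. Five buffer/ATP cycles ran, with NaOH stripping and re-annealing between them. The fluorescence ratio is summed target-cycle over summed buffer-cycle Cy3 intensity per cluster, averaged per switch-domain sequence. Clusters outside 100-1000 RFU were excluded.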
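Also: ATP exposure 15 min at 22 °C before imaging.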

Sequence	switch fluorescence ratio
TAACATCGGT	0.996 ± 0.021
GGAGACTTTA	1.006 ± 0.0056
AGGCTTAAAT	0.989 ± 0.025
GAGGTGGGGC	1.05 ± 0.028
AGTTTATTAT	1.02 ± 0.015
TCGGAGGCCT	1.04 ± 0.04
GTGAGGGATT	1 ± 0.022
CGCTTGAGA	1.04 ± 0.026
CAGGTGAGAA	1.16 ± 0.026
GTGATGGGGA	0.9895 ± 0.0095
TAGACAAGAT	1.04 ± 0.0028
TTAGATGGAG	0.984 ± 0.024
GGGTGGCATT	0.957 ± 0.0032
GCATGCGCTG	0.982 ± 0.015
GCTTAGGGGG	1.031 ± 0.0069
GAGTCTGGGA	1.032 ± 0.0051
AGATAACAGG	1.01 ± 0.034
GTCGTCTTAC	1.05 ± 0.045
TCACGTTGGA	1.01 ± 0.019
ATATGGTCAT	0.9719 ± 0.0021
GAAAAAGCGG	1.04 ± 0.015
CAGTGGTACG	1.02 ± 0.065
AATAGGGATT	0.984 ± 0.019
TGGGAGGGTC	1.12 ± 0.14
GGGTTGTGAT	0.984 ± 0.014
CGTAGGATTT	0.9554 ± 0.0048

Sequence	switch fluorescence ratio
TTAGTGGCTA	1.019 ± 0.0087
GATGATAGCG	0.999 ± 0.025
AATTACCGCG	1.03 ± 0.023
GCAAATAAGT	1.02 ± 0.038
CCTGGGGGGT	1.06 ± 0.13
AACGGCAGGT	1.03 ± 0.013
TACTAGAAGA	1.03 ± 0.039
GATTTTTGGG	1.01 ± 0.047
ATGAGATTTT	0.988 ± 0.015
GGTTGGCAGG	1 ± 0.038
GCGGCACGGG	1.02 ± 0.054
GTTGTTTTAG	0.992 ± 0.019
AAAGGAACTC	0.999 ± 0.092
TGACGGCTGG	1.026 ± 0.0044
CTGGGGGTCA	1.04 ± 0.026
GTGAATGTAT	1.02 ± 0.021
GGTTTACTTC	0.9967 ± 0.0016
CTGGAATTCA	1.02 ± 0.049
CAGTTACGGT	1.003 ± 0.0068
TTATTTGTCA	0.989 ± 0.013
TCTTTCCTGC	1.022 ± 0.0014
TGGGCTACTG	1.04 ± 0.04
TCCAAACCAG	1.06 ± 0.012
TTAATAGGCC	0.974 ± 0.036
AGTCTATCTG	0.964 ± 0.03
TTTTCAGTGG	1.02 ± 0.021

Sequence	switch fluorescence ratio
TGCGGTGTAG	1.01 ± 0.011
TTGAGGCAGT	1.54 ± 0.55
ACCGGTTAGC	1.02 ± 0.015
GACGGTAAAA	1.04 ± 0.015
ACTAAGGGGT	1.05 ± 0.016
AACGGGGATA	1.049 ± 0.0065
ACGGACCATG	1.11 ± 0.042
TTTTTTTGGA	0.976 ± 0.021
GGGTCTGGTG	1.04 ± 0.057
ATAGTCAGTA	1.01 ± 0.019
GGTGATAGTG	0.983 ± 0.024
AAGGTTGTTG	1 ± 0.012
TCTTATAAGC	0.984 ± 0.028
CGGGGGGATT	0.997 ± 0.012
TCGTAACTTA	1.03 ± 0.011
ACGTGGGGTC	1.02 ± 0.022
TAGTACTGTG	0.998 ± 0.017
ATAACCCCGA	1.088 ± 0.0075
AAGGGTTTGC	0.974 ± 0.022
TGAGCGGGTA	1.024 ± 0.0052
TAAGCTCTGT	0.984 ± 0.021
TGAAGGGTTT	0.996 ± 0.052
GATTTTTGGA	0.968 ± 0.03
CGGGGGGGG	1 ± 0.059
